Article PMC7780238, “Structures of ISC th4 transpososomes reveal the role of asymmetry in copy‐out/paste‐in DNA transposition”
One block for each molecule: values may come before it.

Legend:
[1] = target: ISCth4 transposase (TnpA) (Clostridium thermocellum (ATCC 27405)); test: AUC; sedimentation velocity, TnpA alone at 0.5-2 uM, 20 C, 50,000 RPM, 10 mM HEPES pH 7.5, 100 mM, 0.3 mM TCEP; monomer to dimer
[2] = target: ISCth4 transposase (TnpA) (Clostridium thermocellum (ATCC 27405)); test: AUC; sedimentation velocity, TnpA (0.5 or 5 uM) with molar excess of TIR DNA oligonucleotides (R-TIR26 at 4:1 DNA:TnpA; R35(j6)L35 or R35r41 with increasing DNA), 20 C, 10 mM HEPES pH 7.5, 100 mM, 0.3 mM TCEP
[3] = target: T1, ISCth4 transposase (TnpA) (Clostridium thermocellum ATCC 27405, UniProt A3DBR0 1-407); test: X-ray crystallography; PCC; TnpA dimer on one DNA, no metal in active site; 3.5 A native; SEC: 10 mM HEPES pH 7.5, 100 mM NaCl, 0.3 mM TCEP, 4 C. Crystals: PCC 25 mM HEPES pH 7.5, 150 mM NaCl, 2 mM TCEP, 20 C; PRC/STC1 10 mM HEPES pH 7.5, 100 mM NaCl; settings: protein: recombinant; tags: Trx-His-TEV fusion removed by TEV; chain copies: 2; blunt
T1 sequence: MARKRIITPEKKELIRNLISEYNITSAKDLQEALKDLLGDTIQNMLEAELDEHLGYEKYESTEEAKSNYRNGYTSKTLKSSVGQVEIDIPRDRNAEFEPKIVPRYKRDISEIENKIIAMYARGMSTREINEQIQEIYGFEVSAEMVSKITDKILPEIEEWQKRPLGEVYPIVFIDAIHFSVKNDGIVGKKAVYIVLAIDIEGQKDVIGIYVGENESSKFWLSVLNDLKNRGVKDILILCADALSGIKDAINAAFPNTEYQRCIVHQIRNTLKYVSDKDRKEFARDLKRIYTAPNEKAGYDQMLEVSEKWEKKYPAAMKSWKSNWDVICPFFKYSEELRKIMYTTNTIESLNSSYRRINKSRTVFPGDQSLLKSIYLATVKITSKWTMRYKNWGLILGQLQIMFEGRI

[4] = target: T1, ISCth4 transposase (TnpA); test: X-ray crystallography; STC1; TnpA dimer on one DNA; ZnCl2 in drop; SEC: 10 mM HEPES pH 7.5, 100 mM NaCl, 0.3 mM TCEP, 4 C. Crystals: PCC 25 mM HEPES pH 7.5, 150 mM NaCl, 2 mM TCEP, 20 C; PRC/STC1 10 mM HEPES pH 7.5, 100 mM NaCl; settings: protein: recombinant; tags: Trx-His-TEV fusion removed by TEV; chain copies: 2; 3 strands; blunt outer ends; 1-nt gap between S68 and S66
[5] = target: T1, ISCth4 transposase (TnpA); test: X-ray crystallography; PRC; TnpA dimer on one DNA; 10 mM CaCl2 in precipitant; SEC: 10 mM HEPES pH 7.5, 100 mM NaCl, 0.3 mM TCEP, 4 C. Crystals: PCC 25 mM HEPES pH 7.5, 150 mM NaCl, 2 mM TCEP, 20 C; PRC/STC1 10 mM HEPES pH 7.5, 100 mM NaCl; settings: protein: recombinant; tags: Trx-His-TEV fusion removed by TEV; chain copies: 2; blunt
[6] = target: T1, ISCth4 transposase (TnpA); test: SV AUC; 5 uM TnpA; ~7.9 S, plus ~12 S at DNA:TnpA 0.25:1; SEC: 10 mM HEPES pH 7.5, 100 mM NaCl, 0.3 mM TCEP, 4 C. Crystals: PCC 25 mM HEPES pH 7.5, 150 mM NaCl, 2 mM TCEP, 20 C; PRC/STC1 10 mM HEPES pH 7.5, 100 mM NaCl; settings: protein: recombinant; tags: Trx-His-TEV fusion removed by TEV; chain copies: 2; blunt
[7] = target: T1, ISCth4 transposase (TnpA); test: SV AUC; 5 uM TnpA; 7.9 S, 138 kDa dimer:1 DNA, plus ~12 S at DNA:TnpA 0.25:1; SEC: 10 mM HEPES pH 7.5, 100 mM NaCl, 0.3 mM TCEP, 4 C. Crystals: PCC 25 mM HEPES pH 7.5, 150 mM NaCl, 2 mM TCEP, 20 C; PRC/STC1 10 mM HEPES pH 7.5, 100 mM NaCl; settings: protein: recombinant; tags: Trx-His-TEV fusion removed by TEV; chain copies: 2; label: 5'FAM on strand 1 in the labeled version; blunt
[8] = target: T1, ISCth4 transposase (TnpA); test: SEC; 40 uM TnpA; ~450 kDa, octamer with 4 TIRs; behaves like R-TIR; SEC: 10 mM HEPES pH 7.5, 100 mM NaCl, 0.3 mM TCEP, 4 C. Crystals: PCC 25 mM HEPES pH 7.5, 150 mM NaCl, 2 mM TCEP, 20 C; PRC/STC1 10 mM HEPES pH 7.5, 100 mM NaCl; settings: protein: recombinant; tags: Trx-His-TEV fusion removed by TEV; chain copies: 2; blunt

stoichiometry N [1]: 2
stoichiometry N [2]: 2
Molecule: ISCth4 transposase (TnpA) (enzyme)

B1: R-TIR26 (dsDNA)
DNA 1: GGCAGTGTAAATATTTTTGTGTAAAC
DNA 2: GTTTACACAAAAATATTTACACTGCC
binding result [3]: binds

B2: R26(j6)L15-5'rec (dsDNA)
DNA 1: GTTTACACAAAAATATTTACACTGCCGTTTTGGAGATTGTAAAATAT
DNA 2: ATATTTTACAATCTCCAAAAC
DNA 3: GCAGTGTAAATATTTTTGTGTAAAC
binding result [4]: binds

B3: fR-TIR26 (dsDNA)
DNA 1: TTTTTGGGCAGTGTAAATATTTTTGTGTAAAC
DNA 2: GTTTACACAAAAATATTTACACTGCCCAAAAA
binding result [5]: binds

B4: R35r41 (dsDNA)
DNA 1: GCACTGGATGTTTACACAAAAATATTTACACTGCCTTTTTTTACCTAGTCATCAATGCCTACGTACGTAACGTTAC
DNA 2: GTAACGTTACGTACGTAGGCATTGATGACTAGGTAAAAAAAGGCAGTGTAAATATTTTTGTGTAAACATCCAGTGC
binding result [6]: binds

B5: R35(j6)L35 (dsDNA)
DNA 1: GCACTGGATGTTTACACAAAAATATTTACACTGCCTTTTTTGAGATTGTAAAATATTTTATGTAAACAGTGCACTG
DNA 2: CAGTGCACTGTTTACATAAAATATTTTACAATCTCAAAAAAGGCAGTGTAAATATTTTTGTGTAAACATCCAGTGC
binding result [7]: binds

B6: L-TIR26 (dsDNA)
DNA 1: GAGATTGTAAAATATTTTATGTAAAC
DNA 2: GTTTACATAAAATATTTTACAATCTC
binding result [8]: binds
